Experimental data from patent publication US20210363265A1 (INVENRA, published 2021).
Changes are numbered by the printed parent chain.

Legend:
[1] = target: T1, OX40 on T cells (primary naive CD4+ T cells; Jurkat/OX40 reporter cells) (UniProt P43489 29-277, limits assumed); assay: cell-based or functional assay
T1 sequence (looked up): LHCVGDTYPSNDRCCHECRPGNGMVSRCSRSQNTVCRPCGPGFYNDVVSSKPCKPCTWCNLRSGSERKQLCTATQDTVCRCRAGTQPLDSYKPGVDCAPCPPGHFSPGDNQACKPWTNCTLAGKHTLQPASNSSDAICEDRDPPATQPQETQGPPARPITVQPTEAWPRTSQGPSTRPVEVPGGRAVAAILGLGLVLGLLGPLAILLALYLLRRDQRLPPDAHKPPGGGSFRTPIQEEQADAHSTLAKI

OX40: 108-214-Fc = target: T2, OX40: 108-214-Fc (human); assay: BLI, OX40-Fc fragment immobilized on sensor
T2 construct: Immobilized on the BLI sensor
T2 sequence (chain, as listed by the source): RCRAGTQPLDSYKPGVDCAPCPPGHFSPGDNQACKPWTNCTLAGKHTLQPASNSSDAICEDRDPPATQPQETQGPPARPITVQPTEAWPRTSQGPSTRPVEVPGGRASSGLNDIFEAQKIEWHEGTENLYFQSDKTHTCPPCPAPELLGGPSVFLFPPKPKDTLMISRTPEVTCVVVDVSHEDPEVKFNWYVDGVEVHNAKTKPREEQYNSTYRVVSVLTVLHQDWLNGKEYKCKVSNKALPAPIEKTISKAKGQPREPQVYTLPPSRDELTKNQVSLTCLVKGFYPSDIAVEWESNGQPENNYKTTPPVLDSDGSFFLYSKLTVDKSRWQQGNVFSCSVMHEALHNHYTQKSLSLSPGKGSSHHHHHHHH

OX40: 127-214-Fc = target: T3, OX40: 127-214-Fc (human); assay: BLI, OX40-Fc truncation immobilized on sensor
T3 construct: Immobilized on the BLI sensor
T3 sequence (chain, as listed by the source): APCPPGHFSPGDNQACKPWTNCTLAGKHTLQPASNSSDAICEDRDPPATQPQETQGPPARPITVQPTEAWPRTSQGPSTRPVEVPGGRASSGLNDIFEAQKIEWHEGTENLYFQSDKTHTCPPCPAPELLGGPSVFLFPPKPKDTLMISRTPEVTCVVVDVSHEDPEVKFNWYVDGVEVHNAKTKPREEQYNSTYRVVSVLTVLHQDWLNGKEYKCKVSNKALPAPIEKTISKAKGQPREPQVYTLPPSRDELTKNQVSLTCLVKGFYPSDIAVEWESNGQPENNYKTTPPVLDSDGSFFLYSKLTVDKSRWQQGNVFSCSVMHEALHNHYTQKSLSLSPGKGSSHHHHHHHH

OX40: 66-214-Fc = target: T4, OX40: 66-214-Fc (human); assay: BLI, OX40-Fc fragment immobilized on sensor
T4 construct: Immobilized on the BLI sensor; also called first truncation
T4 sequence (chain, as listed by the source): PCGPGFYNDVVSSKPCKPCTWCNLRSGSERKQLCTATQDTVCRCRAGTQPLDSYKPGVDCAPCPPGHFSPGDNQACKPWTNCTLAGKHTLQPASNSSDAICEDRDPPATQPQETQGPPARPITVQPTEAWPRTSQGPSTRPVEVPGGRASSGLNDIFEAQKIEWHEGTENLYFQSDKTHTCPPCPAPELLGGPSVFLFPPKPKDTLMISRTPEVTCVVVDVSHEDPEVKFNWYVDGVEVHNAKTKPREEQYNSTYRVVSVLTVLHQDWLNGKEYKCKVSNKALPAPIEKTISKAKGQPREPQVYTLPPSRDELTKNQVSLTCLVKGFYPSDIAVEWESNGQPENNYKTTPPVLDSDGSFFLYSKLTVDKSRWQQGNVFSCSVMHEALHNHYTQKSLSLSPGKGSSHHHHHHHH

B1: OX40:24-24×11 (bispecific antibody)
chain 1: not shown
chain 2: EVQLVESGGGLVQPGGSLRLSCAASGFTFLSYYIHWVRQAPGKGLEWVAYIDPYSGGTDYADSVKGRFTISADTSKNTAYLQMNSLRAEDTAVYYCARVGLSFYAQEPVLDYWGQGTLVTVSSASPREPQVYTDPPSRDELTKNQVSLTCLVKGFYPSDIAVEWESNGQPENNYKTTPPVLDSDGSFFLYSKLTVDKSRWQQGNVFSCSVMHEALHNHYTQKSLSLSGEC
chain 3: DIQMTQSPSSLSASVGDRVTITCRASQSVSSAVAWYQQKPGKAPKLLIYSASSLYSGVPSRFSGSRSGTDFTLTISSLQPEDFATYYCQQYTSHPGTFGQGTKVEIKRTVAAPSVFIFPPSDEQLKSGTASVVCLLNNFYPREAKVQWKVDNALQSGNSQESVTEQDSKDSTYSLSSTLTLSKADYEKHKVYACEVTHQGLSSPVTKSFNRGECDKTHTCPPCPAPELLGGPSVFLFPPKPKDTLMISRTPEVTCVVVDVSHEDPEVKFNWYVDGVEVHNAKTKPREEQYNSTYRVVSVLTVLHQDWLNGKEYKCKVSNKALPAPIEKTISKAKGQPREPQVCTLPPSREEMTKNQVSLSCAVKGFYPSDIAVEWESNGQPENNYKTTPPVLDSDGSFFLVSKLTVDKSRWQQGNVFSCSVMHEALHNHYTQKSLSLSPGK
chain 4: EVQLVESGGGLVQPGGSLRLSCAASGFTFSSYVIHWVRQAPGKGLEWVAYIFPYGGTTYYADSVKGRFTISADTSKNTAYLQMNSLRAEDTAVYYCARGYYYVSDRVMDYWGQGTLVTVSSASTKGPSVFPLAPSSKSTSGGTAALGCLVKDYFPEPVTVSWNSGALTSGVHTFPAVLQSSGLYSLSSVVTVPSSSLGTQTYICNVNHKPSNTKVDKKVEPPKSC
With B1 the “antibody concentration at peak T cell proliferation” value (“antibody concentration” for short) [1] was 10 nM.

B2: OX40:24-24(WEE)×11 (bispecific antibody)
chain 1: not shown
chain 2: B1 chain 2
chain 3: B1 chain 3
chain 4: B1 chain 4
For B2, the “antibody concentration” value [1] was 10 nM.

B3: OX40:24-11×11 (bispecific antibody)
chain 1: not shown
chain 2: B1 chain 4
chain 3: B1 chain 3
chain 4: B1 chain 2
B3 was tested, and the “antibody concentration” value [1] was under 10 nM.

B4: OX40:24(WEE)-11×11 (bispecific antibody)
chain 1: not shown
chain 2: B1 chain 4
chain 3: B1 chain 3
chain 4: B1 chain 2
For B4, the “antibody concentration” value [1] was under 10 nM.

B5: Tavolixizumab (IgG1-kappa) (antibody, V domains shown)
VH: QVQLQESGPGLVKPSQTLSLTCAVYGGSFSSGYWNWIRKHPGKGLEYIGYISYNGITYHNPSLKSRITINRDTSKNQYSLQLNSVTPEDTAVYYCARYKYDYDGGHAMDYWGQGTLVTVSS
VL: DIQMTQSPSSLSASVGDRVTITCRASQDISNYLNWYQQKPGKAPKLLIYYTSKLHSGVPSRFSGSGSGTDYTLTISSLQPEDFATYYCQQGSALPWTFGQGTKVEIKR
B5: binds (OX40: 108-214-Fc); no binding (OX40: 127-214-Fc).

B6: GSK3174998 (antibody, human IgG1, kappa, V domains shown)
VH: EVKLEESGGGLVQPGGSMKLSCAASGFTFSDAWMDWVRQSPEKGLEWVAEIRSKANNHATYYAESVNGRFTISRDDSKSSVYLQMNSLRAEDTGIYYCTWGEVFYFDYWGQGTTLTVSS
VL: DIQMTQSPSSLSASLGGKVTITCKSSQDINKYIAWYQHKPGKGPRLLIHYTSTLQPGIPSRFSGSGSGRDYSFSISNLEPEDIATYYCLQYDNLLTFGAGTKLELKR
notes: also called Clinical mAB; clinical
B6: binds (OX40: 66-214-Fc).

B7: Pogalizumab (IgG1-kappa) (antibody, V domains shown)
VH: EVQLVQSGAEVKKPGASVKVSCKASGYTFTDSYMSWVRQAPGQGLEWIGDMYPDNGDSSYNQKFRERVTITRDTSTSTAYLELSSLRSEDTAVYYCVLAPRWYFSVWGQGTLVTVSS
VL: B5 VL with K53R, H55R, Y71F, S92H, A93T, W96P
notes: also called Pagolizumab
B7: binds (OX40: 108-214-Fc); no binding (OX40: 127-214-Fc).
